Assay results: paper PMC8606822, “Novel dTDP-L-Rhamnose Synthetic Enzymes (RmlABCD) From Saccharothrix syringae CGMCC 4.1716 for One-Pot Four-Enzyme Synthesis of dTDP-L-Rhamnose” (Frontiers in Microbiology, 2021)

Key:
Ss-RmlD = biological target: T1, Ss-RmlD (Saccharothrix syringae, UniProt A0A5Q0HAF2); test: one-pot reaction with Ss-RmlABC; product yield by HPLC; type: biochemical; settings: pH 8.5, 30 °C; dTDP-4-keto-rhamnose made in situ
T1 construct: gene rfbD
T1 sequence (A0A5Q0HAF2 1-297): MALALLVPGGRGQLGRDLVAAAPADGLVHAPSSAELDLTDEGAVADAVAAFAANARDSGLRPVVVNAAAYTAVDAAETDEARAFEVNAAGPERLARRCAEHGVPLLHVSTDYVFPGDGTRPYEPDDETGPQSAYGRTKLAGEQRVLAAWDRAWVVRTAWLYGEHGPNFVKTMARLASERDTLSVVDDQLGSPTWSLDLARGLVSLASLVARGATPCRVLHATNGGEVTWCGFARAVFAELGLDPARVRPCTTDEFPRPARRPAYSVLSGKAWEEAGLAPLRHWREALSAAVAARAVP

purified protein = substrate: Cc1cn([C@H]2C[C@H](O)[C@@H](COP(=O)(O)OP(=O)(O)O[C@H]3O[C@H](CO)[C@@H](O)[C@H](O)[C@H]3O)O2)c(=O)[nH]c1=O; test: purified protein; type: biochemical, Saccharothrix syringae; settings: optimal conditions (50 °C, pH 7.5, 0.02 mM NAD+)
[1] = substrate: O=P(O)(O)O[C@H]1O[C@H](CO)[C@@H](O)[C@H](O)[C@H]1O; test: malachite green PPi release assay with inorganic pyrophosphatase; type: biochemical, Saccharothrix syringae; settings: 1 mM dTTP, optimal conditions (37 °C, pH 9.0, 2.5 mM Mg2+)
[2] = substrate: Cc1cn([C@H]2C[C@H](O)[C@@H](COP(=O)(O)OP(=O)(O)OP(=O)(O)O)O2)c(=O)[nH]c1=O; test: as above; type: biochemical, Saccharothrix syringae; settings: 1 mM Glc-1-P, optimal conditions (37 °C, pH 9.0, 2.5 mM Mg2+)

NC(=O)C1=CN([C@@H]2O[C@H](COP(=O)(O)OP(=O)(O)OC[C@H]3O[C@@H](n4cnc5c(N)ncnc54)[C@H](OP(=O)(O)O)[C@@H]3O)[C@@H](O)[C@H]2O)C=CC1 [NADPH]
one-pot reaction with Ss-RmlABC; product yield by HPLC (Ss-RmlD): NADPH was an essential cofactor for the final step of reduction catalyzed by Ss-RmlD

B1: Ss-RmlB (Saccharothrix syringae) (protein)
chain: MRVLVTGGAGFIGSHYVRELVGGSYPAYADAEVVVLDKLTYAGNEANLAPVADSPRLTFVRGDICDRELVVGVMRGVDVVVHFAAESHVDRSITGSADFVLTNVLGTQVLLQAALEAGVAKFVHVSTDEVYGSIAEGSWTEDHVLEPNSPYSASKASSDLLARAFHRTHGLPVCVTRCSNNYGPYQFPEKVIPLFVTNLVDGRKVPLYGDGLNVRDWLHVDDHCRGIQLVLEGGRGGEIYNIGGGTELTNRELTARLLEATGRDWDSFVEPVEDRKGHDRRYSVDITKISTELGYAPRVDFAEGLAATVRWYRENRAWWEPLKQRAALTG
Km (purified protein): 98.60 µM | kcat (purified protein): 11.2 s⁻¹

B2: Ss-RmlA (Saccharothrix syringae) (protein)
chain: MKGIILAGGSGTRLHPITQAVSKQLLPVYDKPMVYYPLSVLMLAGIREILLISTPTDLPLFRRLLGDGSQFGLSVSYAEQAQPNGLAEAFVIGADFVGDDDVSLVLGDNIFYGQGFSRLLQHHAATLDGCVLFGYPVKDPERYGVGEVDATGRLVSIEEKPAAPKSNKAITGLYFYDNQVVDIARNLRPSARGELEITDVNLTYLRQGRAHLVDLGRGFAWLDTGTHDSLLEAGQFVQVLEHRQGVRIACPEEIALRMGFITADECYALGEKLAKSGYGQYVMYVAREVR
Km [1]: 117.30 µM | kcat [1]: 3.46 s⁻¹ | Km [2]: 49.56 µM | kcat [2]: 5.39 s⁻¹
